Experimental data as given in the supplement of paper PMC9170038.

Tested on: MS2 coat protein
Assay: apparent KD of MS2 coat protein; designed switch direction (-1 OFF switch, 1 ON switch): -1; higher = weaker reporter binding
Outline: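 Designed RNA switches with common flanks were transcribed on Illumina chips by stalled E. coli RNA polymerase and titrated with SNAP-549-labelled MS2 coat protein, from 0.7 or 1.5 nM doubling to 3 µM, in Tris-HCl pH 7.5 buffer with KCl, MgCl2, BSA, DTT, tRNA and Tween-20. Steps lasted 0.8–1.5 h (lowest) to 10–20 min (highest). Titrations ran without input, with 200 uM small-molecule ligand, or with an oligonucleotide input. Normalised cluster fluorescence was curve-fitted, and apparent KD is the per-design median over clusters.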

[1] = Eterna round: R95, input ligand: FMN 200 uM
[2] = Eterna round: R95, input ligand: microRNA oligo, concentration not stated
[3] = Eterna round: R95, input ligand: none
[4] = input ligand: microRNA oligo, concentration not stated

Row | Sequence | apparent KD of MS2 coat protein [1] [nM] | apparent KD of MS2 coat protein [2] [nM] | apparent KD of MS2 coat protein [3] [nM] | apparent KD of MS2 coat protein (input ligand: FMN 200 uM) [nM] | apparent KD of MS2 coat protein [4] [nM] | apparent KD of MS2 coat protein (input ligand: none) [nM]
1 | AAGAGCGUAGGAUAUACAUGAGGAUCACCCAUGUGAGGAGGGAAAAGGAGGUGUGGAAGUAGAAGGACGGAGUG [JR_Exclu3_Sub080] (puzzle: Exclusion 3) | 31.8 | 30.9 | 36.5 |  |  | 
2 | CUCUUGUUAGGAUAUCAAACCAGUGACGGAACCACUGGAAGUGAGAAGGGACAUGAGGAUCACCCAUGUAAGAA [Edraate] (puzzle: Exclusion 4) |  | 52.3 |  |  |  | 
3 | GCGAAAGCAAACAGGUGAAACAUGAGGAUCACCCAUGUCCUCAUUUGCUCGUCUUAUAAGCUAUGCGAAAGCAUAGC [Sensor 3, v1 - 8] (puzzle: Sensor v3, turn-off variant 1) | 100 | 935 | 109 |  |  | 
4 | AGCUGUGGCCGAGGAUAUCCACAUGAGGAUCACCCAUGUUGAUACGCCGUUAGGCGAUAUAGAAGGGAGAAGGCGGUCUCAGCA [Eli eng2 - 050] (Eterna round: R96, puzzle: Exclusion NG 2) |  |  |  | 7.84 | 7.26 | 13.7
5 | AGUACUAACACGCCAGUGUUAGUACAAUAAGCUUGUGAAACAUGAGGAUCACCCAUGUCCUCAUAAGCUCGUCUUAU [salish99_TOv2_r3_028] (puzzle: Sensor v3, turn-off variant 2) | 16.9 | 677 | 15.1 |  |  | 
6 | AGUACUAACACGAAAGUGUUAGUACAAUAAGCUUGUGAAACAUGAGGAUCACCCAUGUCCUCAUCAGCUCGUCUUAU [salish99_TOv2_r3_052] (puzzle: Sensor v3, turn-off variant 2) | 124 | 409 | 191 |  |  | 
7 | AAAUACAAGUAAAGAUCCUACAUGAGGAUCACCCAUGUGCUCGUUUUAUAAAGUACUAUCACGAAAGUGAUAGUACA [Sensor 3, v1 - 23] (puzzle: Sensor v3, turn-off variant 1) | 900 | 4.81 | 435 |  |  | 
8 | CCAUGUAGAGGAUAUCUUAAGCUAGACAUGAGGAUCACCCAUGUGACUAUUCCUAUGAGCGGAGAAGGCUGAACCA [Eternabot (L2) Solution 64] (Eterna round: R97, puzzle: Exclusion 5) |  |  |  | 29.7 |  | 29.6
9 | GACUUCUGAGGAUAUACAUAGAUUUACAUGAGGAUCACCCAUGUUCCUCUAUGUAUAAAUGUAGAAGGCAGAAGAG [Mat - Exclusion 5 - JL Mod - D65] (Eterna round: R97, puzzle: Exclusion 5) |  |  |  | 70.7 |  | 19.7
10 | AAACGCUGAGGAUAUAUAUAACAACAAAGCCUCACGUGCCAACAUGAGGAUCACCCAUGUAGAAGGCAGCCCAA [Mod R3 Insanara 12 - Jieux - Exclusion 2] (Eterna round: R97, puzzle: Exclusion 2) |  |  |  | 15.8 |  | 14.1
11 | GGUAGAGUGGUAGGAUAUCCGUCUGUUUCAGUCGGAGAAGGACCACAGUCACUGGGUCCAUGUUUCAUGGAGACCUGAUCUACC [pwkr exNG1 F6.9] (Eterna round: R96, puzzle: Exclusion NG 1) |  |  |  | 26.9 | 59.7 | 130
12 | CAGUACUGAGGAUAUACAUGAGGAUCACCCAUGUCUUCCAGCUAGGAUACUAGCAAAUGUAGAAGGCAGUACUG [Mat - Exclusion 3 - Eli Mod - D9] (Eterna round: R97, puzzle: Exclusion 3) |  |  |  | 428 |  | 68.1
13 | UUUAAUGGAAUUAAGAUCACAUGAGGAUCACCCAUGUAUAUAUAGGAUAUCAGCUCGUGUAGAGCUGAGAAGGAUAUAUACAUA [ExNG3/6-B3] (Eterna round: R96, puzzle: Exclusion NG 3) |  |  |  | 208 | 344 | 185
14 | GUAGAGUAAGGAUAUUGUGAAUAGGAUAGAAUGGUUAGAAGCAAGAAGGUACAUGAGGAUCACCCAUGUAAUGU [Excluse me!!!! 25 - Jieux - Exclusion 4] (puzzle: Exclusion 4) |  | 23.1 |  |  |  | 
15 | UUGACGUCGUCAGGAUAUAGUUUUAAUGUCAUGCUUUUGUUUUUACAUGAGGAUCACCCAUGUCGCUAGAAGGGACUAAAGAUU [JR_ExcNG2_Sub012] (Eterna round: R96, puzzle: Exclusion NG 2) |  |  |  | 33.5 | 32.8 | 35
16 | GGCCUUCCACAAGCUUUUUACAUGAGGAUCACCCAUGUGGUUUUUAGUCUUAUCCCGGGCCCGAUGUCGGGCCCGGG [-33.4, -54.7, A 16%] (Eterna round: R97, puzzle: Sensor, turn-off variant 1) |  |  |  | 27.4 |  | 28.4
17 | CUUUUGUGAGGAUAUUAGUAGUAAAUAAAUUAAAUUACUACUGAGAAGGCACAUGAGGAUCACCCAUGUUCCUC [salish99_ex4_r3_057] (puzzle: Exclusion 4) |  | 32 |  |  |  | 
